Data reported in paper PMC5461112, “Structure analyses reveal a regulated oligomerization mechanism of the PlexinD1/GIPC/myosin VI complex” (eLife, 2017).
Residue numbers refer to the chain shown, from its start. Names and notes keep the numbering of the source. Values joined by “and” are separate entries in the source; they are usually repeats but may differ in a detail not shown here. Identical values can stand only once. Each block holds one molecule with its values, some of them ahead of it.

Experiments:
[1] = target: mouse GIPC3 GH1-PDZ-GH2 (residues 20-307) (mouse); test: SEC; gel filtration chromatography of the GH1-PDZ-GH2 proteins during purification
[2] = target: mouse GIPC1 GH1-PDZ-GH2 (version not told; pull-down and gel filtration) (mouse) (UniProt Q9Z0G0); test: as above
[3] = target: T1, helical cargo-binding domain (HCBD) of mouse myosin VI (residues 1052-1096), GST removed; test: sedimentation velocity analytical ultracentrifugation (AUC); settings: chain shown with the change, 150 μM, read off a plot
T1 chain: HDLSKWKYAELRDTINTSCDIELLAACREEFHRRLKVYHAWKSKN

[4] = target: helical cargo-binding domain (HCBD) of mouse myosin VI (residues 1052-1096), GST removed (mouse); test: AUC; sedimentation velocity of GH2 and HCBD mixed 1:1 at various concentrations (mutants at 150 μM); multi-signal analysis; 10 mM Tris pH 8.0, 150 mM NaCl, 1 mM TCEP; 4°C, 50,000 rpm
[5] = target: T2, mouse PlexinD1 cytoplasmic region with the JM-segment (residues 1297-1925) (mouse, UniProt Q3UH93 1297-1925); test: pull-down; three proteins mixed: GST-HCBD, a GIPC and PlexinD1cyto (with JM), each 1 μM; glutathione beads; 10 mM Tris pH 8.0, 150 mM NaCl, 1 mM DTT; room temperature; Coomassie-stained SDS-PAGE; settings: both partners purified
T2 construct: mouse PlexinD1, cytoplasmic region with the juxtamembrane segment, residues 1297-1925; also called PlexinD1_(cyto)(with JM); PlxD1; not shown: His6, N-terminal, cleaved
T2 sequence (looked up): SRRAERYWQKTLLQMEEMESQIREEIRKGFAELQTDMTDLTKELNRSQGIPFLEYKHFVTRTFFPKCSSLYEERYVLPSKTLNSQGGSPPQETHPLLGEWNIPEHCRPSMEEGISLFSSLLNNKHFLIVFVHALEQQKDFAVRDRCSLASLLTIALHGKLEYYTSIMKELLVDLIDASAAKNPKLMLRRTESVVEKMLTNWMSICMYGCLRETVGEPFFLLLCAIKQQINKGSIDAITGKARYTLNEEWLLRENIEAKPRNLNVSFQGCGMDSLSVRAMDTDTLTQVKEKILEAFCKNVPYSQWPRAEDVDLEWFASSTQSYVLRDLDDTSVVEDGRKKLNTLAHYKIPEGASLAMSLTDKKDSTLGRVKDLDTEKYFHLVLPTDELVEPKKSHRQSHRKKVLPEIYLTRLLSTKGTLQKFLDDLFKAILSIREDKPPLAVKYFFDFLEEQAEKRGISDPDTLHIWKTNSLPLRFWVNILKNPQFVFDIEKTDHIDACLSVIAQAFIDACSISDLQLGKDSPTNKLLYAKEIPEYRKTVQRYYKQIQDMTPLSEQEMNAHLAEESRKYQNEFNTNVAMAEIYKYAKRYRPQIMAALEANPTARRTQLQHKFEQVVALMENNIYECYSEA

[6] = target: the molecule itself; test: SEC; gel filtration chromatography of the GH1-PDZ-GH2 proteins during purification
[7] = target: the molecule itself; test: crystal structure; apo-GIPC1 (residues 52-327), 5 mg/ml; 0.2 M Li2SO4, 0.1 M HEPES pH 7.5, 25% (w/v) PEG3350; 20°C
[8] = target: the molecule itself; test: crystal structure; PlexinD1cyto and GIPC1 (residues 52-333) mixed equimolar, 5 mg/ml; 0.1 M Bis-Tris pH 5.5, 2 M (NH4)2SO4; 20°C
[9] = 500 mM salt in the buffer, parent: est. 4.3

Molecule: mouse GIPC3 GH1-PDZ-GH2 (residues 20-307) (domain or fragment)
- stoichiometry N [1]: 2

B1: mouse GIPC1 GH2 domain (residues 258-333), Q9Z0G0 M276E (protein)
chain: SAFEEKAIEKVDDLLESYEGIRDTELAATMVELGKDKRNPDELAEALDERLGDFAFPDEFVFDVWGAIGDAKVGRY
- other: s20,ww-value of the complex ([3]; parent: est. 3.8): 3.3 S

B2: mouse GIPC1 GH2 domain (residues 258-333), Q9Z0G0 Y275A (protein)
chain: B1 chain with Y18A, E19M
- other: s20,ww-value of the complex ([3]; parent: est. 3.8): 3 S

B4: mouse GIPC1 GH2 domain (residues 258-333) (domain or fragment)
chain: B1 chain with E19M
- stoichiometry N [4]: 1 and 1.1

B6: mouse GIPC1 GH2 domain (residues 258-333), Q9Z0G0 Y275A; M276E; G323Q (protein)
chain: B1 chain with Y18A, G66Q
- other: s20,ww-value of the complex ([3]; parent: est. 3.8): 1.3 S

B7: mouse GIPC1 GH2 domain (residues 258-333), Q9Z0G0 Y275A; G323Q (protein)
chain: B1 chain with Y18A, E19M, G66Q
- other: s20,ww-value of the complex ([3]; parent: est. 3.8): 1.6 S

B9: mouse GIPC1 GH2 domain (residues 258-333), Q9Z0G0 I278Q (protein)
chain: B1 chain with E19M, I21Q
- other: s20,ww-value of the complex ([3]; parent: est. 3.8): 2.1 S

B10: mouse GIPC1 GH2 domain (residues 258-333), Q9Z0G0 G323Q (protein)
chain: B1 chain with E19M, G66Q
- other: s20,ww-value of the complex ([3]; parent: est. 3.8): 1.8 S

B13: mouse GIPC1 GH2 domain (residues 258-333), Q9Z0G0 Y275A; M276E (protein)
chain: B1 chain with Y18A
- other: s20,ww-value of the complex ([3]; parent: est. 3.8): 1.3 S

B15: mouse GIPC2 GH1-PDZ-GH2 (residues 40-314) (domain or fragment, UniProt Q9Z2H7 40-314, looked up)
chain: RKLVFHAQLAHGSATGRVEDFSSISELYAKIAGVFEIAPSEILFCTLNTPKIDMGKLLGGQLGLEDFIFAHVKGTKKEVNVYKSEDSLGLTITDNGVGYAFIKRIKDGSTIDSVKTICVGDHIECINGENIVGWRHFEVAKKLKELKKEELFTLQLIEPKKAFEIGPRSKAGKTSTEKIGTSRGTLRLRSKGPATVEELPSEAKAKAIGKVDDLLELYMGIRDIDLATTMFEAGKDKSNPDEFAVALDETLGDFAFPDEFLFDVWGAISDMKQGR
notes: mouse GIPC2, GH1-PDZ-GH2 domains, residues 40-314; not shown: His6, N-terminal, cleaved
- binding result [5]: binds
- stoichiometry N [6]: 2

B16: mouse GIPC1 GH1-PDZ-GH2 version 2 (residues 52-327) (domain or fragment, UniProt Q9Z0G0 52-327, looked up)
chain: AALRPRLVFHTQLAHGSPTGRIEGFTNVKELYGKIAEAFRLPAAEVMFCTLNTHKVDMDKLLGGQIGLEDFIFAHVKGQRKEVEVFKSEEALGLTITDNGAGYAFIKRIKEGSVIDHIQLISVGDMIEAINGQSLLGCRHYEVARLLKELPRGRTFTLKLTEPRKAFDMISQRSAGGHPGSGPQLGTGRGTLRLRSRGPATVEDLPSAFEEKAIEKVDDLLESYMGIRDTELAATMVELGKDKRNPDELAEALDERLGDFAFPDEFVFDVWGAIGD
notes: mouse GIPC1, GH1-PDZ-GH2 domains, version 2, residues 52-327; the dimer peak of gel filtration was collected; also called apo-GIPC1; not shown: His6, N-terminal, cleaved
- binding result [7]: binds

B17: mouse GIPC1 GH1-PDZ-GH2 version 1 (residues 52-333) (domain or fragment, UniProt Q9Z0G0 52-333, looked up)
chain: AALRPRLVFHTQLAHGSPTGRIEGFTNVKELYGKIAEAFRLPAAEVMFCTLNTHKVDMDKLLGGQIGLEDFIFAHVKGQRKEVEVFKSEEALGLTITDNGAGYAFIKRIKEGSVIDHIQLISVGDMIEAINGQSLLGCRHYEVARLLKELPRGRTFTLKLTEPRKAFDMISQRSAGGHPGSGPQLGTGRGTLRLRSRGPATVEDLPSAFEEKAIEKVDDLLESYMGIRDTELAATMVELGKDKRNPDELAEALDERLGDFAFPDEFVFDVWGAIGDAKVGRY
notes: mouse GIPC1, GH1-PDZ-GH2 domains, version 1, residues 52-333; the PDZ-GH2 linker and GH2 domain are invisible in the map; not shown: His6, N-terminal, cleaved
- binding result [8]: binds

B18: mouse GIPC1 linker-GH2 (residues 217-333), Q9Z0G0 Y275A; M276E; I278Q; G323Q (protein)
chain: AFDMISQRSAGGHPGSGPQLGTGRGTLRLRSRGPATVEDLPSAFEEKAIEKVDDLLESAEGQRDTELAATMVELGKDKRNPDELAEALDERLGDFAFPDEFVFDVWQAIGDAKVGRY
- other: s20,ww-value of the complex [3, 9]: 1.4 S

B20: mouse GIPC1 linker-GH2 (residues 217-333), Q9Z0G0 Y275A; M276E (protein)
chain: B18 chain with Q62I, Q107G
- other: s20,ww-value of the complex [3, 9]: 1.4 S

More lines, now with the values ahead:

- stoichiometry N [2]: 2
Molecule: mouse GIPC1 GH1-PDZ-GH2 (version not told; pull-down and gel filtration) (from UniProt Q9Z0G0 52-333) (domain or fragment)

- other: s20,ww-value of the complex ([3]; parent: est. 3.8): 1.3 S
B3: mouse GIPC1 GH2 domain (residues 258-333), Q9Z0G0 Y275A; M276E; I278Q (protein)
chain: B1 chain with Y18A, I21Q

- other: s20,ww-value of the complex ([3]; parent: est. 3.8): 1.8 S
B5: mouse GIPC1 GH2 domain (residues 258-333), Q9Z0G0 I278Q; G323Q (protein)
chain: B1 chain with E19M, I21Q, G66Q

- other: s20,ww-value of the complex ([3]; parent: est. 3.8): 2.4 S
B8: mouse GIPC1 GH2 domain (residues 258-333), Q9Z0G0 F319S (protein)
chain: B1 chain with E19M, F62S

- other: s20,ww-value of the complex ([3]; parent: est. 3.8): 1.3 S
B11: mouse GIPC1 GH2 domain (residues 258-333), Q9Z0G0 Y275A; M276E; I278Q; G323Q (protein)
chain: B1 chain with Y18A, I21Q, G66Q

- other: s20,ww-value of the complex ([3]; parent: est. 3.8): 1.6 S
B12: mouse GIPC1 GH2 domain (residues 258-333), Q9Z0G0 M276E; F319S (protein)
chain: B1 chain with F62S

- other: s20,ww-value of the complex ([3]; parent: est. 3.8): 1.5 S
B14: mouse GIPC1 GH2 domain (residues 258-333), Q9Z0G0 M276E; G323Q (protein)
chain: B1 chain with G66Q

- other: s20,ww-value of the complex [3, 9]: 1.4 S
B19: mouse GIPC1 linker-GH2 (residues 217-333), Q9Z0G0 Y275A; M276E; G323Q (protein)
chain: B18 chain with Q62I

- other: s20,ww-value of the complex [3, 9]: 1.4 S
B21: mouse GIPC1 linker-GH2 (residues 217-333), Q9Z0G0 Y275A; M276E; I278Q (protein)
chain: B18 chain with Q107G
